One experiment has as its target TMR-NTT (TMR-labeled Serinc3 NTT(Cys16) peptide, MBP removed) (UniProt Q13530). Briefly: fluorescence polarisation. The settings on record: read off a plot.
In turn, “complex of wild-type MBP-Nef with the α(1–398)/σ2 hemicomplex of AP2 (from UniProt Q90VU7;P18484;P53680) F121D” returned a response of 20 mP. Regarding “complex of wild-type MBP-Nef with the α(1–398)/σ2 hemicomplex of AP2 (from UniProt Q90VU7;P18484;P53680) L112D”, the response was 16 mP. Same read-out and setting: the result for “complex of wild-type MBP-Nef with the α(1–398)/σ2 hemicomplex of AP2 (from UniProt Q90VU7;P18484;P53680) W57A; L58A” reads 55 mP; that for “complex of wild-type MBP-Nef with the α(1–398)/σ2 hemicomplex of AP2 (from UniProt Q90VU7;P18484;P53680) L37D”, 37 mP; that for “complex of wild-type MBP-Nef with the α(1–398)/σ2 hemicomplex of AP2 (from UniProt Q90VU7;P18484;P53680) D123K”, 45 mP.

The next experiment addresses complex of wild-type MBP-Nef with the α(1–398)/σ2 hemicomplex of AP2 (HIV-1 (NL4.3) | not stated) (UniProt Q90VU7). Briefly: fluorescence polarisation; α(1–398)/σ2 (20 µM) and MBP-Nef WT or mutant (30 µM) mixed 30 min at room temperature, then 200 nM TMR-NTT, 15 μL, 1 or 2 h at room temperature; single concentration; control is probe only.
Details: not given
Background: Polarisation of emitted light reports the rotation of a fluorescent probe.
Turning to “TMR-NTT (TMR-labeled Serinc3 NTT(Cys16) peptide, MBP removed) (from UniProt Q13530 1-39)”, the FP signal was 90 mP.

Source of the values: publication PMC12846431.
